Reference: paper PMC5762688 (2018)

Legend:
[1] = target: GST-exportin-1-His6/Ran-GTPγS complex, preformed (UniProt O14980 1-1071; P62826 1-216)
[2] = target: His6-importin α2/GST-importin β1 heterodimer (mouse), pre-dimerized (mouse, UniProt P52293 1-529; P70168 1-876)

Chain of GST-exportin-1-His6/Ran-GTPγS complex, preformed (O14980 whole entry, one chain of several): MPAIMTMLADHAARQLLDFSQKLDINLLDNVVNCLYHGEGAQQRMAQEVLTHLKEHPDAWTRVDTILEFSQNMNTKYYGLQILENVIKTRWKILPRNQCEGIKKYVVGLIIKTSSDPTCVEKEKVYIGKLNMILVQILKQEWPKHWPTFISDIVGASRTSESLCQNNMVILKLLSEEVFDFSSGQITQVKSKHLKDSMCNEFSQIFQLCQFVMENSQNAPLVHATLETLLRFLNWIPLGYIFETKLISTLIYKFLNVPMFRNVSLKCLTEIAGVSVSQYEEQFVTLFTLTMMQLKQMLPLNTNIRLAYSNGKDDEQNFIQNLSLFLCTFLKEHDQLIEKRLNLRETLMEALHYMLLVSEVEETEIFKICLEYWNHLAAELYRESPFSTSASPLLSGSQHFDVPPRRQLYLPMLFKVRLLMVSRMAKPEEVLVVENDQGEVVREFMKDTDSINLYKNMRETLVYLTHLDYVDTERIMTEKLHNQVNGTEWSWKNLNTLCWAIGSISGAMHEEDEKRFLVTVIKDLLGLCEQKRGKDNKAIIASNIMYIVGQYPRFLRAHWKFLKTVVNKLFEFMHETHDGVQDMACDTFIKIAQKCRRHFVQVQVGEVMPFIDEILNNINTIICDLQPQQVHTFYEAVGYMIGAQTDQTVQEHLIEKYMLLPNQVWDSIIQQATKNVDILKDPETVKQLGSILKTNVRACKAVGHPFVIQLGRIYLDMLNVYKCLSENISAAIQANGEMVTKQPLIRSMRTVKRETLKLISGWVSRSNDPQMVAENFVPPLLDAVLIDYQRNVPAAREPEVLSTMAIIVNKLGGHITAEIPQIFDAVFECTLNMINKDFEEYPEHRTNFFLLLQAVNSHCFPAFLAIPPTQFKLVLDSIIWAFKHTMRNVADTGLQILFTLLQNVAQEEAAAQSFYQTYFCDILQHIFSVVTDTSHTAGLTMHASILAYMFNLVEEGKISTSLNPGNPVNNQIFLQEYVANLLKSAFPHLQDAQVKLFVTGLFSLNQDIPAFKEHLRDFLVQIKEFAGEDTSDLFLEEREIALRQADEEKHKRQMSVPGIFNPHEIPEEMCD

B1: Biotinylated Hendra virus V protein (natural protein)
chain: MDKLDLVNDGLDIIDFIQKNQKEIQKTYGRSSIQQPSTKDRTRAWEDFLQSTSGEHEQAEGGMPKNDGGTEGRNVEDLSSVTSSDGTIGQRVSNTRAWAEDPDDIQLDPMVTDVVYHDHGGECTGHGPSSSPERGWSYHMSGTHDGNVRAVPDTKVLPNAPKTTVPEEVREIDLIGLEDKFASAGLNPAAVPFVPKNQSTPTEEPPVIPEYYYGSGRRGDLSKSPPRGNVNLDSIKIYTSDDEDENQLEYEDEFAKSSSEVVIDTTPEDNDSINQEEVVGDPSDQGLEHPFPLGKFPEKEETPDVRRKDSLMQDSCKRGGVPKRLPMLSEEFECSGSDDPIIQELEREGSHPGGSLRLREPPQSSGNSRNQPDRQLKTGDAASPGGVQRPGTPMPKSRIMPIKKGHRREVSICWDGRRAWVEEWCNPVCSRITPQPRKQECYCGECPTECSQCCHEE
[1]
  Kd: 9.2 nM
[2]
  Kd: 14.9 nM
